Numbered stars: 1 amine (or outer) side, 2 acyl side, 3 side chain; on linkers, the order of the positions; unused ones are H or OH. Bridge positions count the residues as written; N and C are the ends. Ends that are not written are not given here. * marks the point of attachment. Ttds = 1,13-diamino-4,7,10-trioxatridecan-succinamic acid, NCCCOCCOCCOCCCNC(=O)CCC(=O)*; tMeBn(DOTA-AET) = Cys-Cys bridge (thioethers) carrying DOTA-AET; tMeBn(DOTA-PP) = Cys-Cys bridge (thioethers) carrying DOTA-PP; DOTA = O=C(O)CN1CCN(CC(=O)O)CCN(CC(=O)*)CCN(CC(=O)O)CC1; mXylylene = c1cc(C[*:1])cc(C[*:2])c1; 2Lut = Cys-Cys bridge (thioethers); 3Lut = Cys-Cys bridge (thioethers); Pentanesulfonyl = CCCCCS(=O)(=O)*; Hexanoyl = CCCCCC(=O)*
B1: Hex-[Cys(3MeBn)-Pro-Pro-Ala-Glu-Phe-Cys]-NH2 (peptide)
peptide: Hexanoyl-CPPAEFC-NH2
modifications: linker 1-7 via mXylylene
SMILES: CCCCCC(=O)N[C@H]1CSCc2cccc(c2)CSC[C@@H](C(N)=O)NC(=O)[C@H](Cc2ccccc2)NC(=O)[C@H](CCC(=O)O)NC(=O)[C@H](C)NC(=O)[C@@H]2CCCN2C(=O)[C@@H]2CCCN2C1=O
B2: Hex-[Cys(3MeBn)-Pro-Pro-Thr-Ala-Phe-Cys]-NH2 (peptide)
peptide: Hexanoyl-CPPTAFC-NH2
modifications: linker 1-7 via mXylylene
SMILES: CCCCCC(=O)N[C@H]1CSCc2cccc(c2)CSC[C@@H](C(N)=O)NC(=O)[C@H](Cc2ccccc2)NC(=O)[C@H](C)NC(=O)[C@H]([C@@H](C)O)NC(=O)[C@@H]2CCCN2C(=O)[C@@H]2CCCN2C1=O
B3: Hex-[Cys(tMeBn(DOTA-AET))-Pro-Pro-Thr-Gln-Phe-Cys]-asp-NH2 (peptide)
peptide: CPPTQFCD
modifications: N-terminal Hex (hexanoyl); Cys1-Cys7 bridged by tMeBn(DOTA-AET) (thioethers); D-Asp8 (asp); C-terminal amide
B4: Ac-[Cys(3MeBn)-Pro-Pro-Thr-Glu-Phe-Cys]-Asp-His-Phe-Arg-Asp-NH2 (peptide)
peptide: Ac-CPPTEFCDHFRD-NH2
modifications: linker 1-7 via mXylylene
SMILES: CC(=O)N[C@H]1CSCc2cccc(c2)CSC[C@@H](C(=O)N[C@@H](CC(=O)O)C(=O)N[C@@H](Cc2c[nH]cn2)C(=O)N[C@@H](Cc2ccccc2)C(=O)N[C@@H](CCCNC(=N)N)C(=O)N[C@@H](CC(=O)O)C(N)=O)NC(=O)[C@H](Cc2ccccc2)NC(=O)[C@H](CCC(=O)O)NC(=O)[C@H]([C@@H](C)O)NC(=O)[C@@H]2CCCN2C(=O)[C@@H]2CCCN2C1=O
B5: Hex-[Cys(3MeBn)-Pro-Pro-Thr-Gln-Phe-Cys]-Asp-Ape-NH-DOTA' (peptide)
peptide: Hexanoyl-CPPTQFCD
modifications: linker 1-7 via mXylylene; not fully specified (C-terminus); printed as Hex-[Cys(3MeBn)-Pro-Pro-Thr-Gln-Phe-Cys]-Asp-Ape(DOTA)
B6: Hex-[Cys(3MeBn)-Pro-Pro-Thr-Gln-Phe-Cys]-Asp-Ttds-Ape-NH-DOTA' (peptide)
peptide: Hexanoyl-CPPTQFCD
modifications: linker 1-7 via mXylylene; not fully specified (C-terminus); printed as Hex-[Cys(3MeBn)-Pro-Pro-Thr-Gln-Phe-Cys]-Asp-Ttds-Ape(DOTA)
B7: Pentyl-SO2-[Cys(3MeBn)-Pro-Pro-Thr-Gln-Phe-Cys]-Asp-NH2 (peptide)
peptide: Pentanesulfonyl-CPPTQFCD-NH2
modifications: linker 1-7 via mXylylene
SMILES: CCCCCS(=O)(=O)N[C@H]1CSCc2cccc(c2)CSC[C@@H](C(=O)N[C@@H](CC(=O)O)C(N)=O)NC(=O)[C@H](Cc2ccccc2)NC(=O)[C@H](CCC(N)=O)NC(=O)[C@H]([C@@H](C)O)NC(=O)[C@@H]2CCCN2C(=O)[C@@H]2CCCN2C1=O
B8: Hex-[Cys(3MeBn)-Pro-Pro-Thr-Glu-Phe-Cys]-Asp-His-Phe-Arg-Asp-NH2 (peptide)
peptide: Hexanoyl-CPPTEFCDHFRD-NH2
modifications: linker 1-7 via mXylylene
SMILES: CCCCCC(=O)N[C@H]1CSCc2cccc(c2)CSC[C@@H](C(=O)N[C@@H](CC(=O)O)C(=O)N[C@@H](Cc2c[nH]cn2)C(=O)N[C@@H](Cc2ccccc2)C(=O)N[C@@H](CCCNC(=N)N)C(=O)N[C@@H](CC(=O)O)C(N)=O)NC(=O)[C@H](Cc2ccccc2)NC(=O)[C@H](CCC(=O)O)NC(=O)[C@H]([C@@H](C)O)NC(=O)[C@@H]2CCCN2C(=O)[C@@H]2CCCN2C1=O
B9: Hex-[Cys(3MeBn)-Pro-Pro-Thr-Gln-Phe-Cys]-Asp-NH2 (peptide)
peptide: Hexanoyl-CPPTQFCD-NH2
modifications: linker 1-7 via mXylylene
SMILES: CCCCCC(=O)N[C@H]1CSCc2cccc(c2)CSC[C@@H](C(=O)N[C@@H](CC(=O)O)C(N)=O)NC(=O)[C@H](Cc2ccccc2)NC(=O)[C@H](CCC(N)=O)NC(=O)[C@H]([C@@H](C)O)NC(=O)[C@@H]2CCCN2C(=O)[C@@H]2CCCN2C1=O

Biological target: T1, human fibroblast activation protein (FAP) on FAP-expressing human WI-38 fibroblasts (human)
Test: competition FACS, WI-38 cells, vs Cy5-labeled compound; D: pIC50 ≤6.0

T1 sequence (chain, as listed by the source): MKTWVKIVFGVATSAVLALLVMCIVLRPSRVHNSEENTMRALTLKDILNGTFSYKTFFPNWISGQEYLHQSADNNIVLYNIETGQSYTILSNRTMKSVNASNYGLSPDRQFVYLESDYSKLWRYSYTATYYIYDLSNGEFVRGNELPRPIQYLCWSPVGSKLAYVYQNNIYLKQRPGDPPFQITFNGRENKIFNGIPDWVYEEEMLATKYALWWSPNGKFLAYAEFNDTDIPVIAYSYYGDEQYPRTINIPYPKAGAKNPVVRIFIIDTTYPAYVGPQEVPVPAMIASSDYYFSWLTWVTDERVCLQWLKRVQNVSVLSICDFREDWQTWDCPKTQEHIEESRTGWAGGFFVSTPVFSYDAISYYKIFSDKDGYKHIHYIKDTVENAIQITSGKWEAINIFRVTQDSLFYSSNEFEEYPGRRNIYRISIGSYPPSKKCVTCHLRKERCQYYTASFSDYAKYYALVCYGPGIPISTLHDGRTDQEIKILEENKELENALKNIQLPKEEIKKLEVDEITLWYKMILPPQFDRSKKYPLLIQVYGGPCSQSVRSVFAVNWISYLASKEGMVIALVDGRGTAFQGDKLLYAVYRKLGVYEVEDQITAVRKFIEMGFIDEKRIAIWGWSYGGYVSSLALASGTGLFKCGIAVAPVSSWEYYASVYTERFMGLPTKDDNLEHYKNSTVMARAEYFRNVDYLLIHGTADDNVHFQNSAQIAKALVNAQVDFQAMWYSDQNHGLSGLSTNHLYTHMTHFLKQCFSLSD

Which “pIC50 Category (FACS)” value does the source give for B1 here?
Its value is no more than 6 pIC50.

For B2, which “pIC50 Category (FACS)” value is on record?
Its value is no more than 6 pIC50.

Biological target: T1, human fibroblast activation protein …
Test: competition FACS, WI-38 cells, vs Cy5-labeled compound; A: pIC50 >8.0

B3 was tested. Which “pIC50 Category (FACS)” value did it give?
The value was greater than 8 pIC50.

How did the “pIC50 Category (FACS)” value turn out when B4 was run?
The value was greater than 8 pIC50.

With B5 as the binder, how does the “pIC50 Category (FACS)” value read?
Its value is greater than 8 pIC50.

Hexanoyl-CPPTQFCD-NH2 (linker 1-7 via 3Lut) [Hex-[Cys(3Lut)-Pro-Pro-Thr-Gln-Phe-Cys]-Asp-NH2] was tested. Which “pIC50 Category (FACS)” value did it give?
The value was greater than 8 pIC50.

For Hexanoyl-CPPTQFCD-OH (linker 1-7 via tMeBn(DOTA-AET)) [Hex-[Cys(tMeBn(DOTA-AET))-Pro-Pro-Thr-Gln-Phe-Cys]-Asp-OH], which “pIC50 Category (FACS)” value is on record?
Its value is greater than 8 pIC50.

With Hexanoyl-CPPTEFC-NH2 (linker 1-7 via tMeBn(DOTA-AET)) [Hex-[Cys(tMeBn(DOTA-AET))-Pro-Pro-Thr-Glu-Phe-Cys]-NH2] as the binder, how does the “pIC50 Category (FACS)” value read?
The value was greater than 8 pIC50.

Which “pIC50 Category (FACS)” value does the source give for B6 here?
The value was greater than 8 pIC50.

With {DOTA-Ttds}-LCPPTEFCDHFRD-NH2 (linker 2-8 via mXylylene) [DOTA-Ttds-Leu-[Cys(3MeBn)-Pro-Pro-Thr-Glu-Phe-Cys]-Asp-His-Phe-Arg-Asp-NH2] as the binder, how does the “pIC50 Category (FACS)” value read?
The value was greater than 8 pIC50.

With Pentanesulfonyl-CPPTEFC-OH (linker 1-7 via tMeBn(DOTA-AET)) [Pentyl-SO2-[Cys(tMeBn(DOTA-AET))-Pro-Pro-Thr-Glu-Phe-Cys]-OH] as the binder, how does the “pIC50 Category (FACS)” value read?
The value was greater than 8 pIC50.

How did the “pIC50 Category (FACS)” value turn out when Hexanoyl-CPPTQFCD-NH2 (linker 1-7 via tMeBn(GaDOTA-PP)) [Hex-[Cys(tMeBn(GaDOTA-PP))-Pro-Pro-Thr-Gln-Phe-Cys]-Asp-NH2] was run?
Its value is greater than 8 pIC50.

How did the “pIC50 Category (FACS)” value turn out when Hexanoyl-CPPTQFCD-NH2 (linker 1-7 via tMeBn(DOTA-PP)) [Hex-[Cys(tMeBn(DOTA-PP))-Pro-Pro-Thr-Gln-Phe-Cys]-Asp-NH2] was run?
Its value is greater than 8 pIC50.

Which “pIC50 Category (FACS)” value does the source give for Hexanoyl-CPPTQFCD-NH2 (linker 1-7 via tMeBn(DOTA-AET)) [Hex-[Cys(tMeBn(DOTA-AET))-Pro-Pro-Thr-Gln-Phe-Cys]-Asp-NH2] here?
Its value is greater than 8 pIC50.

Which “pIC50 Category (FACS)” value does the source give for Hexanoyl-CPPTQFCD-NH2 (linker 1-7 via tMeBn(LuDOTA-PP); also: Lu-DOTA complex) [Hex-[Cys(tMeBn(LuDOTA-PP))-Pro-Pro-Thr-Gln-Phe-Cys]-Asp-NH2] here?
Its value is greater than 8 pIC50.

For Hexanoyl-CPPTQFCD-NH2 (linker 1-7 via tMeBn(EuDOTA-PP); also: Eu-DOTA complex) [Hex-[Cys(tMeBn(EuDOTA-PP))-Pro-Pro-Thr-Gln-Phe-Cys]-Asp-NH2], which “pIC50 Category (FACS)” value is on record?
Its value is greater than 8 pIC50.

How did the “pIC50 Category (FACS)” value turn out when B7 was run?
Its value is greater than 8 pIC50.

With Hexanoyl-CPPTQFCD-NH2 (linker 1-7 via tMeBn(InDOTA-PP); also: In-DOTA complex) [Hex-[Cys(tMeBn(InDOTA-PP))-Pro-Pro-Thr-Gln-Phe-Cys]-Asp-NH2] as the binder, how does the “pIC50 Category (FACS)” value read?
The value was greater than 8 pIC50.

Hexanoyl-CPPTQFCD-NH2 (linker 1-7 via 2Lut) [Hex-[Cys(2Lut)-Pro-Pro-Thr-Gln-Phe-Cys]-Asp-NH2] was tested. Which “pIC50 Category (FACS)” value did it give?
Its value is greater than 8 pIC50.

Which “pIC50 Category (FACS)” value does the source give for B8 here?
The value was greater than 8 pIC50.

Hexanoyl-CPPTQFCS-OH (linker 1-7 via tMeBn(DOTA-AET)) [Hex-[Cys(tMeBn(DOTA-AET))-Pro-Pro-Thr-Gln-Phe-Cys]-Ser-OH] was tested. Which “pIC50 Category (FACS)” value did it give?
Its value is greater than 8 pIC50.

For B9, which “pIC50 Category (FACS)” value is on record?
The value was greater than 8 pIC50.

Pentanesulfonyl-CPPTQFCD-NH2 (linker 1-7 via tMeBn(DOTA-PP)) [Pentyl-SO2-[Cys(tMeBn(DOTA-PP))-Pro-Pro-Thr-Gln-Phe-Cys]-Asp-NH2] was tested. Which “pIC50 Category (FACS)” value did it give?
The value was greater than 8 pIC50.

Reference: US20220315554A1 (3B PHARMACEUTICALS GMBH, published 2022)
